This is an account of results in patent US20130251724A1 (GlaxoSmithKline, published 2013).

Assay [1] deals with T1, Human OSM (human, UniProt P13725 26-221).
T1 construct: Recombinant human OSM; also called hOSM; human Oncostatin M
T1 sequence: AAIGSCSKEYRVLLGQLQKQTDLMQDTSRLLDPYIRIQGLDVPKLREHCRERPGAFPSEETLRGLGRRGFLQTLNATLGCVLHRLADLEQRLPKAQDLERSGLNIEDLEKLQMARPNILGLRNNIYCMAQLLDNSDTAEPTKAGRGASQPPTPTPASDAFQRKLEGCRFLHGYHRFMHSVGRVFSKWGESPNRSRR
The assay can be described thus: SPR (ProteOn XPR36 or Biacore T100), captured supernatant, OSM as analyte [continued]. As to the method:
(§1) The initial kinetic analyses for the CDRH3 screen were carried out on the ProteOn XPR36 (Biorad Laboratories) and certain supernatants were selected for more accurate kinetic analysis on the BiaCore T100.
(§2) For the ProteOn analysis, anti-human IgG (GE Healthcare/Biacore BR-1008-39) was coupled to a GLM chip (Biorad Laboratories 176-5012) by primary amine coupling. The CDRH3 variants were captured directly on to this surface and recombinant human OSM was passed over the captured antibody surface at 256, 64, 16, 4 and 1 nM, with a buffer injection alone (i.e. 0 nM) used to double reference the binding curves. Following the OSM binding event, the capture surfaces were regenerated: with 3M MgCl₂ the regeneration removed the previously captured antibody ready for another cycle of capture and binding analysis. The data was then fitted to the 1:1 model (with mass transport) inherent to the ProteOn analysis software. The run was carried out using HBS-EP (Biacore/GE-Healthcare BR-1006-69) and the analysis temperature was 25° C.
(§3) A similar method was used for analysis of constructs using the Biacore T100, anti-human IgG (GE Healthcare/Biacore BR-1008-39) was coupled to a CM5 chip (GE Healthcare/Biacore BR-1006-68) by primary amine coupling, antibodies were captured on this surface and recombinant human OSM was passed over the captured antibody surface at 256, 64, 16, 4 and 1 nM, with a buffer injection alone (i.e. 0 nM) used to double reference the binding curves. Regeneration was by using pulses of 3M 3M MgCl₂ or 100 mM phosphoric acid or using both reagents. The data was fitted to the 1:1 model inherent to the Biacore T100 analysis software. The run was carried out using HBS-EP (Biacore/GE-Healthcare BR-1006-69) and the analysis temperature was 25° C.

Assay [2] has as its target T1, Human OSM. The assay is described as follows: SPR (ProteOn XPR36 or Biacore T100), captured supernatant, OSM as analyte; grey cell: 3x decrease in binding. On the procedure:
as §1, §2, §3

For another assay, the target named is T2, Cynomolgus OSM (cynomolgus, UniProt A0A2K5VPC6 26-221).
T2 construct: also called Cyno OSM; cynomolgus macaque OSM
T2 sequence: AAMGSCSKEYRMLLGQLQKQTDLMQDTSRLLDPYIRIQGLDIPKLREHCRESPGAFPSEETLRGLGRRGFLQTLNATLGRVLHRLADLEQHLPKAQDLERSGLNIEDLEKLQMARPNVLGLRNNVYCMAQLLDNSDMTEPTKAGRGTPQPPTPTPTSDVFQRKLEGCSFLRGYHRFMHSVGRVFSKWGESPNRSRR
The assay can be described thus: BIAcore kinetics, transfection supernatant.

Assay [3] has as its target T1, Human OSM. The assay can be described thus: BIAcore kinetics, transfection supernatant.

B1: Pos 95 Thr (antibody, V domains shown)
VH: EVQLVESGGGLVQPGGSLRLSCAASGFTFSSYAMSWVRQAPGKGLEWVATISDGGSFTYYLDNVRGRFTISRDNAKNSLYLQMNSLRAEDTAVYYCARTVGHTTFWYFDVWGRGTLVTVSS
VL: DIVMTQSPDSLAVSLGERATINCRASKSVSAAGYNFMHWYQQKPGQPPKVLIYYASNLESGVPDRFSGSGSGTDFTLTISSLQAEDVAVYYCLHSREFPFTFGGGTKVEIKR
notes: also called CDRH3 D95>T
In turn, B1 had a Kd with Human OSM [1] of 632 pM.

B2: Pos 98 Trp (antibody, V domains shown)
VH: EVQLVESGGGLVQPGGSLRLSCAASGFTFSSYAMSWVRQAPGKGLEWVATISDGGSFTYYLDNVRGRFTISRDNAKNSLYLQMNSLRAEDTAVYYCARDVGWTTFWYFDVWGRGTLVTVSS
VL: DIVMTQSPDSLAVSLGERATINCRASKSVSAAGYNFMHWYQQKPGQPPKVLIYYASNLESGVPDRFSGSGSGTDFTLTISSLQAEDVAVYYCLHSREFPFTFGGGTKVEIKR
notes: also called CDRH3 H98>W
Molecule B2 showed an equilibrium dissociation constant (Kd) with Human OSM [1] of 317 pM.

B3: Pos 96 Thr (antibody, V domains shown)
VH: EVQLVESGGGLVQPGGSLRLSCAASGFTFSSYAMSWVRQAPGKGLEWVATISDGGSFTYYLDNVRGRFTISRDNAKNSLYLQMNSLRAEDTAVYYCARDTGHTTFWYFDVWGRGTLVTVSS
VL: DIVMTQSPDSLAVSLGERATINCRASKSVSAAGYNFMHWYQQKPGQPPKVLIYYASNLESGVPDRFSGSGSGTDFTLTISSLQAEDVAVYYCLHSREFPFTFGGGTKVEIKR
notes: also called CDRH3 V96>T
Molecule B3 came in with a Kd in the assay with Human OSM [1] of 497 pM.

B4: Pos 100 Ala (antibody, V domains shown)
VH: EVQLVESGGGLVQPGGSLRLSCAASGFTFSSYAMSWVRQAPGKGLEWVATISDGGSFTYYLDNVRGRFTISRDNAKNSLYLQMNSLRAEDTAVYYCARDVGHTAFWYFDVWGRGTLVTVSS
VL: DIVMTQSPDSLAVSLGERATINCRASKSVSAAGYNFMHWYQQKPGQPPKVLIYYASNLESGVPDRFSGSGSGTDFTLTISSLQAEDVAVYYCLHSREFPFTFGGGTKVEIKR
notes: also called CDRH3 T100>A
B4 came in with a dissociation constant Kd in the assay with Human OSM [2] of 8550 pM.

B5: Pos 101 Val (antibody, V domains shown)
VH: EVQLVESGGGLVQPGGSLRLSCAASGFTFSSYAMSWVRQAPGKGLEWVATISDGGSFTYYLDNVRGRFTISRDNAKNSLYLQMNSLRAEDTAVYYCARDVGHTTFWYFVVWGRGTLVTVSS
VL: DIVMTQSPDSLAVSLGERATINCRASKSVSAAGYNFMHWYQQKPGQPPKVLIYYASNLESGVPDRFSGSGSGTDFTLTISSLQAEDVAVYYCLHSREFPFTFGGGTKVEIKR
notes: also called CDRH3 D101>V
B5 yielded an equilibrium dissociation constant (Kd) in the assay with Human OSM [1] of 440 pM.

B6: Pos 96 Trp (antibody, V domains shown)
VH: EVQLVESGGGLVQPGGSLRLSCAASGFTFSSYAMSWVRQAPGKGLEWVATISDGGSFTYYLDNVRGRFTISRDNAKNSLYLQMNSLRAEDTAVYYCARDWGHTTFWYFDVWGRGTLVTVSS
VL: DIVMTQSPDSLAVSLGERATINCRASKSVSAAGYNFMHWYQQKPGQPPKVLIYYASNLESGVPDRFSGSGSGTDFTLTISSLQAEDVAVYYCLHSREFPFTFGGGTKVEIKR
notes: also called CDRH3 V96>W
Turning to B6, the Kd with Human OSM [1] was 979 pM.

B7: Humanised 10G8 H0 IGHV3_23 + L1 IGKV1_5 (antibody, V domains shown)
VH: EVQLVESGGGLVQPGGSLRLSCAASGFTFSSYAMSWVRQAPGKGLEWVATISDGGSFTYYLDNVRGRFTISRDNAKNSLYLQMNSLRAEDTAVYYCARDVGHTTFWYFDVWGRGTLVTVSS
VL: DIVMTQSPDSLAVSLGERATINCRASKSVSAAGYNFMHWYQQKPGQPPKVLIYKASSLESGVPDRFSGSGSGTDFTLTISSLQAEDVAVYYCLHSREFPFTFGGGTKVEIK
notes: built from the stated exchange of CDRL2; residue limits derived by me
In the assay with Cynomolgus OSM, B7 had a Kd of 8890 pM, a koff of 0.000593 s⁻¹ and an on-rate (kon) of 66700 M⁻¹ s⁻¹. In the assay with Human OSM [3], this molecule yielded a dissociation constant Kd of 9270 pM, an off-rate constant (koff) of 0.00066 s⁻¹ and a kon of 71100 M⁻¹ s⁻¹.

B8: Pos 100C Val (antibody, V domains shown)
VH: EVQLVESGGGLVQPGGSLRLSCAASGFTFSSYAMSWVRQAPGKGLEWVATISDGGSFTYYLDNVRGRFTISRDNAKNSLYLQMNSLRAEDTAVYYCARDVGHTTFWVFDVWGRGTLVTVSS
VL: DIVMTQSPDSLAVSLGERATINCRASKSVSAAGYNFMHWYQQKPGQPPKVLIYYASNLESGVPDRFSGSGSGTDFTLTISSLQAEDVAVYYCLHSREFPFTFGGGTKVEIKR
notes: also called CDRH3 Y100C>V
Take B8: the equilibrium dissociation constant (Kd) in the assay with Human OSM [1] amounted to 560 pM.

B9: Pos 100A Gln (antibody, V domains shown)
VH: EVQLVESGGGLVQPGGSLRLSCAASGFTFSSYAMSWVRQAPGKGLEWVATISDGGSFTYYLDNVRGRFTISRDNAKNSLYLQMNSLRAEDTAVYYCARDVGHTTQWYFDVWGRGTLVTVSS
VL: DIVMTQSPDSLAVSLGERATINCRASKSVSAAGYNFMHWYQQKPGQPPKVLIYYASNLESGVPDRFSGSGSGTDFTLTISSLQAEDVAVYYCLHSREFPFTFGGGTKVEIKR
notes: also called CDRH3 F100A>Q
As for B9, the affinity with Human OSM [2], expressed as Kd, was 14600 pM.

B10: Pos 100C Trp (antibody, V domains shown)
VH: EVQLVESGGGLVQPGGSLRLSCAASGFTFSSYAMSWVRQAPGKGLEWVATISDGGSFTYYLDNVRGRFTISRDNAKNSLYLQMNSLRAEDTAVYYCARDVGHTTFWWFDVWGRGTLVTVSS
VL: DIVMTQSPDSLAVSLGERATINCRASKSVSAAGYNFMHWYQQKPGQPPKVLIYYASNLESGVPDRFSGSGSGTDFTLTISSLQAEDVAVYYCLHSREFPFTFGGGTKVEIKR
notes: also called CDRH3 Y100C>W
On to B10, for which the Kd with Human OSM [1] is 687 pM.

B11: Pos 102 Ser (antibody, V domains shown)
VH: EVQLVESGGGLVQPGGSLRLSCAASGFTFSSYAMSWVRQAPGKGLEWVATISDGGSFTYYLDNVRGRFTISRDNAKNSLYLQMNSLRAEDTAVYYCARDVGHTTFWYFDSWGRGTLVTVSS
VL: DIVMTQSPDSLAVSLGERATINCRASKSVSAAGYNFMHWYQQKPGQPPKVLIYYASNLESGVPDRFSGSGSGTDFTLTISSLQAEDVAVYYCLHSREFPFTFGGGTKVEIKR
notes: also called CDRH3 V102>S
As for B11, in the assay with Human OSM [1], binding was put at a Kd of 444 pM.

B12: Pos 100A Met (antibody, V domains shown)
VH: EVQLVESGGGLVQPGGSLRLSCAASGFTFSSYAMSWVRQAPGKGLEWVATISDGGSFTYYLDNVRGRFTISRDNAKNSLYLQMNSLRAEDTAVYYCARDVGHTTMWYFDVWGRGTLVTVSS
VL: DIVMTQSPDSLAVSLGERATINCRASKSVSAAGYNFMHWYQQKPGQPPKVLIYYASNLESGVPDRFSGSGSGTDFTLTISSLQAEDVAVYYCLHSREFPFTFGGGTKVEIKR
notes: also called CDRH3 F100A>M
Take B12: the affinity with Human OSM [2], expressed as Kd, was 5190 pM.

B13: Pos 100D Trp (antibody, V domains shown)
VH: EVQLVESGGGLVQPGGSLRLSCAASGFTFSSYAMSWVRQAPGKGLEWVATISDGGSFTYYLDNVRGRFTISRDNAKNSLYLQMNSLRAEDTAVYYCARDVGHTTFWYWDVWGRGTLVTVSS
VL: DIVMTQSPDSLAVSLGERATINCRASKSVSAAGYNFMHWYQQKPGQPPKVLIYYASNLESGVPDRFSGSGSGTDFTLTISSLQAEDVAVYYCLHSREFPFTFGGGTKVEIKR
notes: also called CDRH3 F100D>W
On to B13, for which binding with Human OSM [1] was put at a Kd of 711 pM.

B14: Pos 100D Val (antibody, V domains shown)
VH: EVQLVESGGGLVQPGGSLRLSCAASGFTFSSYAMSWVRQAPGKGLEWVATISDGGSFTYYLDNVRGRFTISRDNAKNSLYLQMNSLRAEDTAVYYCARDVGHTTFWYVDVWGRGTLVTVSS
VL: DIVMTQSPDSLAVSLGERATINCRASKSVSAAGYNFMHWYQQKPGQPPKVLIYYASNLESGVPDRFSGSGSGTDFTLTISSLQAEDVAVYYCLHSREFPFTFGGGTKVEIKR
notes: also called CDRH3 F100D>V
For the molecule B14, the Kd with Human OSM [1] is 675 pM.

B15: Pos 100A His (antibody, V domains shown)
VH: EVQLVESGGGLVQPGGSLRLSCAASGFTFSSYAMSWVRQAPGKGLEWVATISDGGSFTYYLDNVRGRFTISRDNAKNSLYLQMNSLRAEDTAVYYCARDVGHTTHWYFDVWGRGTLVTVSS
VL: DIVMTQSPDSLAVSLGERATINCRASKSVSAAGYNFMHWYQQKPGQPPKVLIYYASNLESGVPDRFSGSGSGTDFTLTISSLQAEDVAVYYCLHSREFPFTFGGGTKVEIKR
notes: also called CDRH3 F100A>H
B15: in the assay with Human OSM [2], the Kd was determined as 39700 pM.
